Source: patent US20190375786A1, “STABLE PEPTIDES AND METHODS OF USE THEREOF” (Fred Hutchinson Cancer Research Center, priority 2016, published 2019)

Assay: Circular dichroism thermal stability, heating 20° C. to 95° C.
Format: physicochemical
Conditions: 10 mM phosphate buffer pH 7.4; heated 20° C. to 95° C.
Method: Protein secondary structures were assessed using Circular Dichrosim (CD). CD spectra were measured with a Jasco J-720W spectropolarimeter using a 1.0 mm path length cell. Protein samples in 10 mM phosphate buffer (pH=7.4) were at 25-30 μM protein concentration. Samples were analyzed at wavelength ranges of […]. Data were expressed in terms of relative ellipticity [θ]; (mdeg). To determine thermal stability of proteins, samples were subjected to incremental increase in temperature at a ramp of 2° C./min from 20° C. to 95° C. Stability and protein unfolding were monitored at 220 and 215 for α-helix and β-sheet secondary structures, respectively. Data are expressed in terms of relative ellipticity [θ], reported in mdeg. For SEQ ID NO: 43 and its point mutant variants, no changes to the α-helix-dominated structure were observed upon heating up to 95° C. […] Additionally, protein melting temperature (Tm) determination was performed by monitoring protein unfolding using SYPRO Orange dye (Molecular Probes). In brief, 0.1 mg/mL protein sample in 20 μL total volume PBS buffer were mixed with 24, of 10× SYPRO Orange dye. Dye intercalation into the hydrophobic protein core following protein unfolding was assayed using the C1000 Touch Thermal Cycler with CFX96 Deep Well Real-Time System (BioRad). Samples were heated from 20° C. to 95° C. with stepwise increments of 0.5° C. per minute and a 5 sec hold step for every point, followed by fluorescence reading. Tm were calculated by analyzing the derivatives of Relative florescence Units (RFU). FIG. 17D illustrates this SYPRO Orange melting assay of Peptides.

Sequence: GSPDEYIERAKECCKKQDIQCCLRIFDESKDPNVMLICLFCW [SEQ ID NO: 43]
- CD secondary structure signature before (Pre) and after (Post) incubation at 95° C.: identical
